Results reported in publication PMC12323374.

What was measured:
Test in all cases: SEC
[1] = biological target: SARS-CoV-2 Nsp3 NAB domain, longer fragment, residues 1,050-1,216 (SARS-CoV-2)
[2] = biological target: SARS-CoV-2 Nsp3 ubiquitin-like 1 (Ubl1) domain, residues 1-111 (SARS-CoV-2)
[3] = biological target: Nsp3 Ubl1 variant E26R E29R (SARS-CoV-2)
[4] = biological target: Nsp3 Ubl1 variant E49R E52R (SARS-CoV-2)
[5] = biological target: Nsp3 Ubl1 variant D80R E81R (SARS-CoV-2)
[6] = biological target: Nsp3 Ubl1 variant K33E K38E (SARS-CoV-2)

SARS-CoV-2 Nsp3 NAB domain, longer fragment, residues 1,050-1,216 (domain or fragment)
stoichiometry N [1]: 2

SARS-CoV-2 Nsp3 ubiquitin-like 1 (Ubl1) domain, residues 1-111 (domain or fragment)
stoichiometry N [2]: 2

Nsp3 Ubl1 variant E26R E29R (domain or fragment)
stoichiometry N [3]: 2

Nsp3 Ubl1 variant E49R E52R (domain or fragment)
stoichiometry N [4]: 2

Nsp3 Ubl1 variant D80R E81R (domain or fragment)
stoichiometry N [5]: 2

Nsp3 Ubl1 variant K33E K38E (domain or fragment)
stoichiometry N [6]: 2
